Assay results from article PMC3315798 (Molecular Biology of the Cell, 2012).

T1: Fus2p-FLAG (full-length Fus2p, internally FLAG-epitope tagged at residue 104) (S. cerevisiae, UniProt Q05670 1-677)
T1 sequence (looked up): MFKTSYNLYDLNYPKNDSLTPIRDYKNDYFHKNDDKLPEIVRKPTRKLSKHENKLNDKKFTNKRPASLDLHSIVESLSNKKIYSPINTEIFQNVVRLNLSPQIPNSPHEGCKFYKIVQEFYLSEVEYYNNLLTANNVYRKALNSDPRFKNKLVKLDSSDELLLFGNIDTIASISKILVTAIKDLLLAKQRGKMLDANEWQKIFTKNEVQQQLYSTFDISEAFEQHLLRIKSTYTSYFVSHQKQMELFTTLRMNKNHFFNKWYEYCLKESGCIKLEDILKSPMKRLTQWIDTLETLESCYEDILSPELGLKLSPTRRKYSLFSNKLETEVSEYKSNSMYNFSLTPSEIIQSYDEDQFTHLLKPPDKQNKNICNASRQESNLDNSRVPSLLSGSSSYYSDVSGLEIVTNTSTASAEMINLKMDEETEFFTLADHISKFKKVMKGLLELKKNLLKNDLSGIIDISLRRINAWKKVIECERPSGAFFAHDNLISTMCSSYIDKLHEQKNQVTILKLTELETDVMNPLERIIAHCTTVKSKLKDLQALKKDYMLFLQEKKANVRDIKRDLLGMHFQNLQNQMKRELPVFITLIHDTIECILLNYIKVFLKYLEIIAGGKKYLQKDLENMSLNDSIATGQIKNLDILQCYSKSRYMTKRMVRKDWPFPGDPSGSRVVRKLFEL


Target: T1, Fus2p-FLAG (full-length Fus2p, …)
Test: co-IP

| % binding relative to wild-type Cdc42p (so in the source) | fold level bound compared with Cdc42p-T17N or wild type | Binder |
| --- | --- | --- |
| 4% | – | GST-Cdc42p (Q61L, D122A) (natural protein) not shown |
| – | ~20 fold | GST-Cdc42p-Q61L (GTP-locked mutant) (natural protein) not shown |
| 7% | – | GST-Cdc42p (V36M, Q61L) (natural protein) not shown |
